{
  "source": "patent US20040092720A1",
  "about": "(US Dept. of Health and Human Services, published 2004)",
  "key": {"recombinant human IL-6 [1]": {"molecular_target": "T1, recombinant human IL-6 (human, UniProt P05231 30-212, labeled with radioactive iodine)", "T1 construct": "Labeled probe in solution, added to wells that carry the synthetic peptides; also called IL-6 ligand; Interleukin-6", "assay": "radioiodinated IL-6 on peptide array", "method": "Synthetic peptide arrays were constructed in 96-well microtiter plates in accordance with the method set forth in WO 91/02714 (Saxinger), and used to test the binding of recombinant human IL-6 that had been labeled with radioactive iodine (radiolabeling by standard methods). After incubating the radiolabeled IL-6 ligand in a well with each synthetic peptide, a washing step was performed to remove unbound label, and the relative level of radioactivity remaining in each well of the plate was evaluated to determine the relative affinity of each peptide for IL-6 ligand."}, "recombinant human IL-6 [2]": {"molecular_target": "T1, recombinant human IL-6", "assay": "radioiodinated IL-6 on peptide array", "remark": "listed apart in the source"}},
  "note": "Like-named read-outs stand apart in the source and are kept apart here.",
  "data": [
    {"binder": "SLTTKAVLLVRKFQNS", "note": "[Peptide B22]", "values": [
      {"measurement": "Counts/minute bound", "setting": "recombinant human IL-6 [1]", "result": 12600, "unit": "counts/minute"}
    ]},
    {"binder": "SLTSDTLYMVRMAAYTDEGGKDGP", "note": "[Peptide E59]", "values": [
      {"measurement": "Counts/minute bound", "setting": "recombinant human IL-6 [2]", "result": 1270, "unit": "counts/minute"}
    ]}
  ]
}
